Patent WO2017055393A1 (dated 2017)

Molecular target: T1, human Tim-3 (T cell Immunoglobulin- and Mucin domain-containing molecule 3) (human, UniProt Q8TDQ0 22-301)
T1 sequence (looked up): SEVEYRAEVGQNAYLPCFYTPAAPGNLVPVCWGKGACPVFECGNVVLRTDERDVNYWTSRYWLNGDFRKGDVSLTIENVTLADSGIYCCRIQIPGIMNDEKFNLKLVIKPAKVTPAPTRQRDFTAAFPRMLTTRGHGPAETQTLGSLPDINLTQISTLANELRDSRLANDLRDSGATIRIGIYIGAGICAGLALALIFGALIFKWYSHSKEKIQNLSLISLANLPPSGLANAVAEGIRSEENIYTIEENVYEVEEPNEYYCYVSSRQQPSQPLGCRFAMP
Assay: cell-based or functional assay

B1: TIM3 TCB molecule: anti-Tim-3 / anti-CD3 T cell bispecific (TCB) molecule, "2+1 IgG CrossFab, inverted" with charge modifications (VH/VL exchange in CD3 … (bispecific antibody)
heavy 1: QVTLKESGPGILQPSQTLRLTCSFSGFSLSTSGMSVGWIRQPSGKGLEWLAHIWLNDDVFFNPALKSRLTISKDTSNNQVFLQIASVVTADTATYYCVRANGYLYALDYWGQGTSVTVSSASTKGPSVFPLAPSSKSTSGGTAALGCLVEDYFPEPVTVSWNSGALTSGVHTFPAVLQSSGLYSLSSVVTVPSSSLGTQTYICNVNHKPSNTKVDEKVEPKSCDKTHTCPPCPAPEAAGGPSVFLFPPKPKDTLMISRTPEVTCVVVDVSHEDPEVKFNWYVDGVEVHNAKTKPREEQYNSTYRVVSVLTVLHQDWLNGKEYKCKVSNKALGAPIEKTISKAKGQPREPQVCTLPPSRDELTKNQVSLSCAVKGFYPSDIAVEWESNGQPENNYKTTPPVLDSDGSFFLVSKLTVDKSRWQQGNVFSCSVMHEALHNHYTQKSLSLSP
heavy 2: not shown
light 1: EVQLLESGGGLVQPGGSLRLSCAASGFTFSTYAMNWVRQAPGKGLEWVSRIRSKYNNYATYYADSVKGRFTISRDDSKNTLYLQMNSLRAEDTAVYYCVRHGNFGNSYVSWFAYWGQGTLVTVSSASVAAPSVFIFPPSDEQLKSGTASVVCLLNNFYPREAKVQWKVDNALQSGNSQESVTEQDSKDSTYSLSSTLTLSKADYEKHKVYACEVTHQGLSSPVTKSFNRGEC
light 2: QIVLTQSPAIMSASPGQKVTITCSASSSVNYTQWYQQKLGSSPKLWIYDAFKLAPGVPARFSGSGTGTSYSLTISSMEAEDAASYFCHQWSSYPWTFGGGTKLEIKRTVAAPSVFIFPPSDRKLKSGTASVVCLLNNFYPREAKVQWKVDNALQSGNSQESVTEQDSKDSTYSLSSTLTLSKADYEKHKVYACEVTHQGLSSPVTKSFNRGEC
  Cytotoxic activity TCB (LDH), IC50 pM, CMK cells (AML): 300 pM
  Cytotoxic activity TCB (LDH), IC50 pM, EOL-1* cells (AML; 24h pre-treated with 10 ng/ml PMA): 300 pM
  Cytotoxic activity TCB (LDH), IC50 pM, KG-1 cells (AML): 1000 pM
  Cytotoxic activity TCB (LDH), IC50 pM, Karpas-299 cells (NHTCL): 500 pM
  Cytotoxic activity TCB (LDH), IC50 pM, Kasumi-1 cells (AML): 3000 pM
  Cytotoxic activity TCB (LDH), IC50 pM, Pfeiffer cells (NHBCL): 10 pM
  Cytotoxic activity TCB (LDH), IC50 pM, RPMI-8226 cells (MM): 100 pM
  Cytotoxic activity TCB (LDH), IC50 pM, SR cells (LCIBL): 100 pM
  EC50 of tumor cell lysis, 24 h LDH release, CHO K1 cells stably expressing human TIM-3, thawed expanded T cells, E:T 1:1: 0.003 nM
  EC50 of tumor cell lysis, 24 h LDH release, Pfeiffer cells, thawed expanded T cells, E:T 1:1: 0.06 nM
